Measured values reported in article PMC4703387, “Identification of the Calmodulin-Binding Domains of Fas Death Receptor” (PLoS ONE, 2016).

Target: T1, calmodulin, calcium-bound (Ca2+/CaM) (UniProt P0DP23 1-149)
T1 construct: all experiments in the presence of calcium; Used unlabelled or 15N/13C-labelled; also called full-length Ca^2+/CaM
Test: NMR titration; 2D 1H-15N HSQC; unlabelled peptide titrated into 15N-labelled Ca2+/CaM, Ca2+/CaM-N or Ca2+/CaM-C (100-150 uM), 35°C, 50 mM Tris-d11 pH 7.0, 100 mM NaCl, 5 mM CaCl2; Kd by one-site fit of chemical shift changes
Settings: both partners purified

B1: FasDD(224-238) peptide (peptide)
peptide: MTLSQVKGFVRKNGV
notes: also called FasDD(228–238); source: synthetic peptide, bought: Genscript (>95% purity)
binding result: binds
